Data taken from publication PMC5458078, “Global mapping of CARM1 substrates defines enzyme specificity and substrate recognition” (Nature Communications, 2017).

How the values were obtained:
MCF7 CARM1 KO cells [1] = assay: Total cellular ADMA levels, stable expression, western blot; format: cell-based, human; details: stable expression in MCF7 CARM1 KO cells; compared with CARM1 FL and CARM1 28–608
Excerpt: (§1) We next sought to assess the impact of CARM1 N-terminal deletion in cells stably expressing mutant enzymes. […] To quantify the affected ADMA-containing peptides in MCF7 CARM1 KO and CARM1 140–608 expressing cells, we employed our quantitative MS method (Fig. 1a) using CARM1 28–608 as a reference for normalization (Supplementary Data 4). […] The magnitude of reduction in CARM1 140–608 cells, however, was slightly less than that in the CARM1 KO cells. […] As indicated by R^2 of 0.65, noticeable differences existed between the levels of ADMA-containing peptides in cells expressing the N-terminal truncation of CARM1 and CARM1 28–608 control (Supplementary Fig. 4f).
(§2) Cells were collected by trypsinization, washed with Dulbecco's phosphate buffer saline (Life Technologies, Carlsbad, CA) and lysed by suspension in lysis buffer (50 mM Tris-HCl pH 8.0, 150 mM NaCl, 10% glycerol, 0.5% Triton X-100 and 1 × protease inhibitor cocktail (Sigma-Aldrich)). After brief sonication followed by centrifugation, total protein was quantified using the BioRad Protein Assay (BioRad, Hercules, CA), and 20 μg protein was resolved by SDS–PAGE. Proteins were transferred to a nitrocellulose membrane for 1.5 h at 350 mA. Membranes were blocked with 5% nonfat milk at room temperature for 1 h and incubated overnight with diluted primary antibody at 4 °C. […]

[2] = system: BAF155, MED12, PABP1, NCOA3 and TET2; assay: Co-immunoprecipitation of BAF155, MED12, PABP1, NCOA3 and TET2 with FLAG-tagged CARM1, western blot; format: cell-based; details: FLAG-tagged construct transiently transfected in HEK293T CARM1 KO cells; anti-FLAG IP
Excerpt: The structure of the N-terminal domain of CARM1 (residues 28–140) resembles those of the EVH1 domains, a subfamily of PH domains that bind proline-rich sequences. With our discovery that CARM1 substrates contain proline-rich motifs, we posited that the protein's N-terminal domain may be required for substrate recognition. To test this hypothesis, we generated three CARM1 constructs: one full-length (CARM1 FL) and two N-terminal truncations CARM1 28–608 and CARM1 140–608 (Fig. 3a). […] We transiently transfected the three FLAG-tagged CARM1 fusion constructs in HEK293T CARM1 KO cells. CARM1 was immunoprecipitated from all three cell lines using anti-FLAG M2 resin, and four known CARM1 substrates/interactors (that is, BAF155 (ref. [20]), MED12 (ref. [30]), PABP1 (ref. [36]) and NCOA3 (ref. [19])) and newly identified TET2 were detected by western blotting. […] To globally assess the magnitude of reduction in CARM1–substrate interactions induced by the loss of the EVH1 domain, we visualized overall protein changes in CARM1 immunoprecipitates by western blotting using the ADMA antibody (Fig. 3c).
as §2, with “°C. Membranes were then washed and incubated with HRP-conjugated secondary antibody for 1 h at room temperature. Signal was visualized by enhanced chemiluminescence reagents (Thermo Scientific, Rockford, IL) and X-ray film exposure followed by scanning and digitalization.” for “°C.”

MCF7 CARM1 KO cells [3] = assay: In vivo methylation of BAF155, stable expression, western blot; format: cell-based, human
Excerpt: as §1, §2

B1: CARM1 140–608: CARM1 140–608 lacks the first 140 residues encompassing the EVH1 domain (protein)
chain: RTEESSAVQYFQFYGYLSQQQNMMQDYVRTGTYQRAILQNHTDFKDKIVLDVGCGSGILSFFAAQAGARKIYAVEASTMAQHAEVLVKSNNLTDRIVVIPGKVEEVSLPEQVDIIISEPMGYMLFNERMLESYLHAKKYLKPSGNMFPTIGDVHLAPFTDEQLYMEQFTKANFWYQPSFHGVDLSALRGAAVDEYFRQPVVDTFDIRILMAKSVKYTVNFLEAKEGDLHRIEIPFKFHMLHSGLVHGLAFWFDVAFIGSIMTVWLSTAPTEPLTHWYQVRCLFQSPLFAKAGDTLSGTCLLIANKRQSYDISIVAQVDQTGSKSSNLLDLKNPFFRYTGTTPSPPPGSHYTSPSENMWNTGSTYNLSSGMAVAGMPTAYDLSSVIASGSSVGHNNLIPLANTGIVNHTHSRMGSIMSTGIVQGSSGAQGSGGGSTSAHYAVNSQFTMGGPAISMASPMSIPTNTMHYGS
modifications: left off: FLAG, end not stated, kept
notes: CARM1 140–608 lacks the first 140 residues encompassing the EVH1 domain
MCF7 CARM1 KO cells [1]
  Cellular protein (ADMA) methylation levels: drastically decreased levels of cellular protein methylation
[2]
  Co-precipitation of BAF155, MED12, PABP1, NCOA3 and TET2: substantially lower amounts of them were detected
MCF7 CARM1 KO cells [3]
  In vivo methylation of BAF155: impaired in vivo methylation of BAF155
